Tests used:
Assay in all cases: cell-based or functional assay
[1] = biological target: HIV-1 Env of pseudovirus BJOX010000.06.2 (HIV-1)
[2] = biological target: HIV-1 Env of pseudovirus P0402_c2_11 (HIV-1)
[3] = biological target: HIV-1 Env of pseudovirus A07412M1.vrc12 (HIV-1)
[4] = biological target: HIV-1 Env of pseudovirus T278-50 (HIV-1)
[5] = biological target: HIV-1 Env of pseudovirus X1254_c3 (HIV-1)
[6] = biological target: HIV-1 Env of pseudovirus 0815.v3.c3 (HIV-1)
[7] = biological target: HIV-1 Env of pseudovirus C2101.c01 (HIV-1)
[8] = biological target: HIV-1 Env of pseudovirus X2088_c9 (HIV-1)
[9] = biological target: HIV-1 Env of pseudovirus R3265.c06 (HIV-1)
[10] = biological target: HIV-1 Env of pseudovirus 3365.v2.c2 (HIV-1)
[11] = biological target: HIV-1 Env of pseudovirus 263-8 (HIV-1)

10-1074 (antibody)
IC50 neutralization (TZM.bl) [1]: > 50 µg/mL
IC80 neutralization (TZM.bl) [1]: > 50 µg/mL
IC50 neutralization (TZM.bl) [2]: 0.012 µg/mL
IC80 neutralization (TZM.bl) [2]: 0.039 µg/mL
IC50 neutralization (TZM.bl) [3]: < 0.001 µg/mL
IC80 neutralization (TZM.bl) [3]: 0.048 µg/mL
IC50 neutralization (TZM.bl) [4]: 2.15 µg/mL
IC80 neutralization (TZM.bl) [4]: 18.3 µg/mL
IC50 neutralization (TZM.bl) [5]: 0.089 µg/mL
IC80 neutralization (TZM.bl) [5]: 0.297 µg/mL
IC50 neutralization (TZM.bl) [6]: 0.03 µg/mL
IC80 neutralization (TZM.bl) [6]: 0.138 µg/mL
IC50 neutralization (TZM.bl) [7]: > 50 µg/mL
IC80 neutralization (TZM.bl) [7]: > 50 µg/mL
IC50 neutralization (TZM.bl) [8]: 0.003 µg/mL
IC80 neutralization (TZM.bl) [8]: 0.014 µg/mL

10E8 (antibody)
IC50 neutralization (TZM.bl) [1]: 0.341 µg/mL
IC80 neutralization (TZM.bl) [1]: 5.29 µg/mL
IC50 neutralization (TZM.bl) [2]: 0.172 µg/mL
IC80 neutralization (TZM.bl) [2]: 3.29 µg/mL
IC50 neutralization (TZM.bl) [3]: 0.576 µg/mL
IC80 neutralization (TZM.bl) [3]: 6.05 µg/mL
IC50 neutralization (TZM.bl) [4]: 0.949 µg/mL
IC80 neutralization (TZM.bl) [4]: 7.46 µg/mL
IC50 neutralization (TZM.bl) [5]: 4.75 µg/mL
IC80 neutralization (TZM.bl) [5]: > 10 µg/mL
IC50 neutralization (TZM.bl) [6]: 0.332 µg/mL
IC80 neutralization (TZM.bl) [6]: 2.87 µg/mL
IC50 neutralization (TZM.bl) [7]: 1.92 µg/mL
IC80 neutralization (TZM.bl) [7]: 8.26 µg/mL
IC50 neutralization (TZM.bl) [8]: > 10 µg/mL
IC80 neutralization (TZM.bl) [8]: > 10 µg/mL
IC50 neutralization (TZM.bl) [9]: > 10 µg/mL
IC80 neutralization (TZM.bl) [9]: > 10 µg/mL

N49P9 (antibody)
neutralization IC50 [1]: 0.482 µg/mL
neutralization IC80 [1]: 2.34 µg/mL
neutralization MPI [1]: 100
neutralization IC50 [2]: 0.028 µg/mL
neutralization IC80 [2]: 0.085 µg/mL
neutralization MPI [2]: 100
neutralization IC50 [3]: 0.142 µg/mL
neutralization IC80 [3]: 0.636 µg/mL
neutralization MPI [3]: 100
neutralization IC50 [4]: > 50 µg/mL
neutralization IC80 [4]: > 50 µg/mL
neutralization MPI [4]: 25
neutralization IC50 [5]: 0.04 µg/mL
neutralization IC80 [5]: 0.104 µg/mL
neutralization MPI [5]: 100
neutralization IC50 [10]: 0.059 µg/mL
neutralization IC80 [10]: 0.198 µg/mL
neutralization MPI [10]: 100
neutralization IC50 [6]: 0.02 µg/mL
neutralization IC80 [6]: 0.057 µg/mL
neutralization MPI [6]: 100
neutralization IC50 [11]: 0.032 µg/mL
neutralization IC80 [11]: 0.161 µg/mL
neutralization MPI [11]: 100
neutralization IC50 [7]: 0.051 µg/mL
neutralization IC80 [7]: 0.209 µg/mL
neutralization MPI [7]: 100
neutralization IC50 [8]: 0.07 µg/mL
neutralization IC80 [8]: 0.252 µg/mL
neutralization MPI [8]: 100
neutralization IC50 [9]: 0.135 µg/mL
neutralization IC80 [9]: 0.812 µg/mL
neutralization MPI [9]: 100

N49P9.1 (antibody)
neutralization IC50 [1]: 0.883 µg/mL
neutralization IC80 [1]: 4.26 µg/mL
neutralization MPI [1]: 100
neutralization IC50 [2]: 0.06 µg/mL
neutralization IC80 [2]: 0.163 µg/mL
neutralization MPI [2]: 100
neutralization IC50 [3]: 0.189 µg/mL
neutralization IC80 [3]: 0.947 µg/mL
neutralization MPI [3]: 100
neutralization IC50 [4]: > 50 µg/mL
neutralization IC80 [4]: > 50 µg/mL
neutralization MPI [4]: 5
neutralization IC50 [5]: 0.101 µg/mL
neutralization IC80 [5]: 0.278 µg/mL
neutralization MPI [5]: 100
neutralization IC50 [10]: 0.055 µg/mL
neutralization IC80 [10]: 0.725 µg/mL
neutralization MPI [10]: 100
neutralization IC50 [6]: 0.012 µg/mL
neutralization IC80 [6]: 0.041 µg/mL
neutralization MPI [6]: 100
neutralization IC50 [11]: 0.049 µg/mL
neutralization IC80 [11]: 0.17 µg/mL
neutralization MPI [11]: 100
neutralization IC50 [7]: 0.085 µg/mL
neutralization IC80 [7]: 0.227 µg/mL
neutralization MPI [7]: 100
neutralization IC50 [8]: 0.091 µg/mL
neutralization IC80 [8]: 0.392 µg/mL
neutralization MPI [8]: 100
neutralization IC50 [9]: 0.469 µg/mL
neutralization IC80 [9]: 1.62 µg/mL
neutralization MPI [9]: 100

N49P19 (antibody)
neutralization IC50 [1]: 4.16 µg/mL
neutralization IC80 [1]: 19.1 µg/mL
neutralization MPI [1]: 96
neutralization IC50 [2]: 0.448 µg/mL
neutralization IC80 [2]: 2.63 µg/mL
neutralization MPI [2]: 100
neutralization IC50 [3]: 3.89 µg/mL
neutralization IC80 [3]: 48.8 µg/mL
neutralization MPI [3]: 80
neutralization IC50 [4]: > 50 µg/mL
neutralization IC80 [4]: > 50 µg/mL
neutralization MPI [4]: 35
neutralization IC50 [5]: > 50 µg/mL
neutralization IC80 [5]: > 50 µg/mL
neutralization MPI [5]: 48
neutralization IC50 [10]: 0.579 µg/mL
neutralization IC80 [10]: 2.09 µg/mL
neutralization MPI [10]: 99
neutralization IC50 [6]: 0.176 µg/mL
neutralization IC80 [6]: 0.743 µg/mL
neutralization MPI [6]: 100
neutralization IC50 [11]: 0.344 µg/mL
neutralization IC80 [11]: 1.51 µg/mL
neutralization MPI [11]: 99
neutralization IC50 [7]: 0.978 µg/mL
neutralization IC80 [7]: 4.19 µg/mL
neutralization MPI [7]: 100
neutralization IC50 [8]: 1.4 µg/mL
neutralization IC80 [8]: 3.76 µg/mL
neutralization MPI [8]: 99
neutralization IC50 [9]: 0.634 µg/mL
neutralization IC80 [9]: 2.73 µg/mL
neutralization MPI [9]: 100

PG9 (antibody)
IC50 neutralization (TZM.bl) [1]: 0.154 µg/mL
IC80 neutralization (TZM.bl) [1]: 0.74 µg/mL
IC50 neutralization (TZM.bl) [2]: 0.296 µg/mL
IC80 neutralization (TZM.bl) [2]: 2.37 µg/mL
IC50 neutralization (TZM.bl) [3]: 0.697 µg/mL
IC80 neutralization (TZM.bl) [3]: 7.96 µg/mL
IC50 neutralization (TZM.bl) [4]: 0.393 µg/mL
IC80 neutralization (TZM.bl) [4]: 3.19 µg/mL
IC50 neutralization (TZM.bl) [5]: 0.065 µg/mL
IC80 neutralization (TZM.bl) [5]: 0.304 µg/mL
IC50 neutralization (TZM.bl) [6]: > 50 µg/mL
IC80 neutralization (TZM.bl) [6]: > 50 µg/mL
IC50 neutralization (TZM.bl) [7]: 0.034 µg/mL
IC80 neutralization (TZM.bl) [7]: 0.099 µg/mL
IC50 neutralization (TZM.bl) [8]: > 50 µg/mL
IC80 neutralization (TZM.bl) [8]: > 50 µg/mL
IC50 neutralization (TZM.bl) [9]: 0.163 µg/mL
IC80 neutralization (TZM.bl) [9]: 0.535 µg/mL

PG16 (antibody)
IC50 neutralization (TZM.bl) [1]: 1.2 µg/mL
IC80 neutralization (TZM.bl) [1]: > 50 µg/mL
IC50 neutralization (TZM.bl) [2]: 0.025 µg/mL
IC80 neutralization (TZM.bl) [2]: 0.411 µg/mL
IC50 neutralization (TZM.bl) [3]: 0.343 µg/mL
IC80 neutralization (TZM.bl) [3]: > 50 µg/mL
IC50 neutralization (TZM.bl) [4]: 0.227 µg/mL
IC80 neutralization (TZM.bl) [4]: 18.6 µg/mL
IC50 neutralization (TZM.bl) [5]: 0.023 µg/mL
IC80 neutralization (TZM.bl) [5]: 0.218 µg/mL
IC50 neutralization (TZM.bl) [6]: > 50 µg/mL
IC80 neutralization (TZM.bl) [6]: > 50 µg/mL
IC50 neutralization (TZM.bl) [7]: 0.012 µg/mL
IC80 neutralization (TZM.bl) [7]: 0.238 µg/mL
IC50 neutralization (TZM.bl) [8]: > 50 µg/mL
IC80 neutralization (TZM.bl) [8]: > 50 µg/mL
IC50 neutralization (TZM.bl) [9]: 0.016 µg/mL
IC80 neutralization (TZM.bl) [9]: 0.146 µg/mL

Source: patent US20240117018A1
